Series [1] concerns the molecule itself. As to the kind of experiment: SEC-MALS; SEC-MALLS, Superdex 200 increase 10/300 GL, 200 mM NaCl, 25 mM HEPES 7.5, 0.4 mL/min; CADM1(ECD)-His6 at 160, 80, 40 and 20 µM; monomer to dimer.
Series [2] concerns the molecule itself. As to the kind of experiment: SEC; F-SEC on tryptophan fluorescence, Superose 6 increase 10/300, purified protein injected at 0.15 to 80 µM; 150 mM NaCl, 25 mM HEPES pH 7.5, 0.025% DDM. (In general: SEC sorts molecules by how far they enter the pores of the column.)
Series [3] concerns the molecule itself. As to the kind of experiment: SEC; F-SEC on the eGFP signal, Superdex 200 increase 10/300 GL, strep-tactin-purified samples of individually expressed or co-expressed proteins; 150 mM NaCl, 25 mM HEPES pH 7.5, 0.025% DDM.

B1: CADM1(ECD)-His6 (domain or fragment, human, UniProt Q9BY67 45-374, looked up)
chain: QNLFTKDVTVIEGEVATISCQVNKSDDSVIQLLNPNRQTIYFRDFRPLKDSRFQLLNFSSSELKVSLTNVSISDEGRYFCQLYTDPPQESYTTITVLVPPRNLMIDIQKDTAVEGEEIEVNCTAMASKPATTIRWFKGNTELKGKSEVEEWSDMYTVTSQLMLKVHKEDDGVPVICQVEHPAVTGNLQTQRYLEVQYKPQVHIQMTYPLQGLTREGDALELTCEAIGKPQPVMVTWVRVDDEMPQHAVLSGPNLFINNLNKTDNGTYRCEASNIVGKAHSDYMLYVYDPPTTIPPPTTTTTTTTTTTTTILTIITDSRAGEEGSIRAVDH
notes: ectodomain of CADM1, human, UniProtKB Q9BY67.2, without the natural signal peptide; also called His-tagged CADM1 ectodomain; soluble CADM1(ECD)-His6; source: HEK293-E+ cells, secreted into the supernatant, purified (Ni Sepharose excel, SEC); not shown: His6, C-terminal, kept
A word on the stoichiometry N: it is a count of units in the complex or per binding partner. Regarding B1, in series [1], the “stoichiometry N” value came out at 2.

B2: CADM1-StrepII3 (natural protein, human, UniProt Q9BY67 45-442, looked up)
chain: QNLFTKDVTVIEGEVATISCQVNKSDDSVIQLLNPNRQTIYFRDFRPLKDSRFQLLNFSSSELKVSLTNVSISDEGRYFCQLYTDPPQESYTTITVLVPPRNLMIDIQKDTAVEGEEIEVNCTAMASKPATTIRWFKGNTELKGKSEVEEWSDMYTVTSQLMLKVHKEDDGVPVICQVEHPAVTGNLQTQRYLEVQYKPQVHIQMTYPLQGLTREGDALELTCEAIGKPQPVMVTWVRVDDEMPQHAVLSGPNLFINNLNKTDNGTYRCEASNIVGKAHSDYMLYVYDPPTTIPPPTTTTTTTTTTTTTILTIITDSRAGEEGSIRAVDHAVIGGVVAVVVFAMLCLLIILGRYFARHKGTYFTHEAKGADDAADADTAIINAEGGQNNSEEKKEYFI
notes: CADM1 excluding the signal peptide, human, UniProtKB Q9BY67.2; called full-length in the results; expressed behind the vector's N-terminal signal peptide; also called full-length CADM1-StrepII3; source: HEK293-E+ cells, transiently transfected, solubilized in DDM, purified (strep-tactin, SEC); not shown: StrepII3, C-terminal, kept
Consider B2, for which the binding result in series [2] is recorded as “binds”.

B3: CADM1-eGFP-StrepII3 (natural protein, human, UniProt Q9BY67 45-442, looked up)
chain: B2 chain
notes: CADM1 excluding the signal peptide, human, UniProtKB Q9BY67.2; expressed behind the vector's N-terminal signal peptide; source: HEK293-E+ cells, transiently transfected, solubilized in DDM, purified (strep-tactin); not shown: eGFP, C-terminal, kept; StrepII3, C-terminal, kept
In the case of B3, the binding result in series [3] is “binds”.
